Results published in patent US20210063414A1, “METHODS FOR PREVENTING AND/OR TREATING BONE LOSS CONDITIONS BY MODULATING IRISIN” (Dana-Farber Cancer Institute, Inc., priority 2018, published 2021).

Biological target: integrin αV/β5 (Homo sapiens, UniProt P06756+P18084)
Experiment: Differential HDX/MS of irisin and integrin αV/β5
Type: binding
Conditions: 10 μM irisin, 30 μM integrin αV/β5
Experimental: Differential HDX-MS experiments were conducted as previously described with a few modifications (Chalmers et al. (2006) Anal. Chen. 78:1005-1014).
Protein samples were injected for inline pepsin digestion and the resulting peptides were identified using tandem MS (MS/MS) with an Orbitrap™ mass spectrometer (Fusion Lumos, ThermoFisher). Following digestion, peptides were desalted on a C8 trap column and separated on a 1 hour linear gradient of 5-40% B (A is 0.3% formic acid and B is 0.3% formic acid 95% CH3CN). Product ion spectra were acquired in data-dependent mode with a one second duty cycle such that the most abundant ions selected for the product ion analysis by higher-energy collisional dissociation between survey scan events occurring once per second. Following MS2 acquisition, the precursor ion was excluded for 16 seconds. […]
HDX-MS analysis: Apo proteins (irisin and integrin αV/β5) were analyzed at 10 μM each. […] The intensity weighted mean m/z centroid value of each peptide envelope was calculated and subsequently converted into a percentage of deuterium incorporation. […] Statistical significance for the differential HDX data was determined by an unpaired t-test for each time point, a procedure that was integrated into the HDX Workbench software (Pascal et al. (2012) J Am. Soc. Mass Spectrom. 23:1512-1521). […]

Sequence of integrin αV/β5 (P18084 24-719 limits assumed): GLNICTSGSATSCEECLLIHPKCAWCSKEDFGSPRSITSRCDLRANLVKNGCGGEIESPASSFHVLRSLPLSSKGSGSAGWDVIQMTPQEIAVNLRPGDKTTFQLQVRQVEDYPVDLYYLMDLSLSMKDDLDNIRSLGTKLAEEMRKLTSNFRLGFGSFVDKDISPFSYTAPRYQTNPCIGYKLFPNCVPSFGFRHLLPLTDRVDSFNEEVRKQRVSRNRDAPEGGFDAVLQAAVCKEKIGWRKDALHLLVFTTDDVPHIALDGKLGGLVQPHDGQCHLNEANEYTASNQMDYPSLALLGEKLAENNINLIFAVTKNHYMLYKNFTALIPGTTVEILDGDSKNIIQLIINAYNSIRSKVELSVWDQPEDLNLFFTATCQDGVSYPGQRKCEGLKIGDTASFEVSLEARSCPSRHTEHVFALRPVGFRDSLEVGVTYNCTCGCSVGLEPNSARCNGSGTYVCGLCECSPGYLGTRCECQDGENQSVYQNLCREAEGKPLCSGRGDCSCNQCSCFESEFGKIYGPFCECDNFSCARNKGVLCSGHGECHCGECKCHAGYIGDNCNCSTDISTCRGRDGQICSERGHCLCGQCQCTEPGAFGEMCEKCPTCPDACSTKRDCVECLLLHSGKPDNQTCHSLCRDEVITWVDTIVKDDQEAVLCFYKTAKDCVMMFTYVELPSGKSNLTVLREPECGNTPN
Sequence of integrin αV/β5 (P06756 31-889 limits assumed): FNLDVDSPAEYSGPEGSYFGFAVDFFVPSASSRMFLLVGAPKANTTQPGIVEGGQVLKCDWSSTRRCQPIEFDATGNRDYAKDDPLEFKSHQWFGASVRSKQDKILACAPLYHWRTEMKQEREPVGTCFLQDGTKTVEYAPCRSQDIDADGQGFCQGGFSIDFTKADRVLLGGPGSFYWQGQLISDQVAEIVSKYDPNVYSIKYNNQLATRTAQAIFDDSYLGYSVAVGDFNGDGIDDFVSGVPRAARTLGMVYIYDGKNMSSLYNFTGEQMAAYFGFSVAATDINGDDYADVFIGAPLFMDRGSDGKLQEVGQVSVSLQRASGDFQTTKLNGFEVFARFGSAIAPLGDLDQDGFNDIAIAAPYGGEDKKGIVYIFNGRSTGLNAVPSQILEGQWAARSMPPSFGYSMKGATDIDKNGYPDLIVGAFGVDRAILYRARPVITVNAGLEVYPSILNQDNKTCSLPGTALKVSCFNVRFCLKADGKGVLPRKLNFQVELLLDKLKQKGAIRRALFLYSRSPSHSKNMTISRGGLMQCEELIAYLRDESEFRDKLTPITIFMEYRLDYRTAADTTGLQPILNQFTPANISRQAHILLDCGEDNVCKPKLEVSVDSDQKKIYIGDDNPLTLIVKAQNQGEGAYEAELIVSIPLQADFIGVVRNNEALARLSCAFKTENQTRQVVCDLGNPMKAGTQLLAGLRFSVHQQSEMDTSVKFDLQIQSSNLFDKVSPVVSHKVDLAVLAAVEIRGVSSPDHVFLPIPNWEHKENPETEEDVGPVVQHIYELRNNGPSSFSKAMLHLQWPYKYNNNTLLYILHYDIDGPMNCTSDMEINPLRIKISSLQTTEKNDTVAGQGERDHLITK
Sequence of integrin αV/β5 (P06756 891-992 partner limits assumed): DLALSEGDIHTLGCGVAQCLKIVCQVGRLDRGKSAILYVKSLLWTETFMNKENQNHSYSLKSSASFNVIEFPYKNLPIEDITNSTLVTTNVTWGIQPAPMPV

B1: irisin: secreted cleaved form of FNDC5; recombinant human/mouse irisin with C-terminal his tag produced in HEK293 cells (protein)
chain: DSPSAPVNVTVRHLKANSAVVSWDVLEDEVVIGFAISQQKKDVRMLRFIQEVNTTTRSCALWDLEEDTEYIVHVQAISIQGQSPASEPVLFKTPREAEKMASKNKDEVTMKE
modifications: left off: small tags and cut ends
notes: secreted cleaved form of FNDC5; recombinant human/mouse irisin with C-terminal his tag produced in HEK293 cells
direct interaction with integrin αV/β5 (HDX/MS): directly binds integrin αV/β5
